Measured values taken from the supplement of paper PMC7877785.
± gives the uncertainty stated by the source.

Assay: self-splicing fitness, log relative to wild type (ln ratio); higher = more splicing; Tetrahymena group I intron in knt gene, E. coli kanamycin selection, DiMSum; sequences stand for … in CUCUCU…GGAGGGAAAAGUUAUCAGGCAUGCACCUGGUAGCUAGUCUUUAAACCAAUAGAUUGCAUCGGUUUAAAAGGCAAGACCGUCAAAUUGCGGGAAAGGGGUCAACAGCCGUUCAGUACCAAGUCUCAGGGGAAACUUUGAGAUGGCCUUGCAAAGGGUAUGGUAAUAAGCUGACGGACAUGGUCCUAACCACGCAGCCAAGUCCUAAGUCAACAGAUCUUCUGUUGAUAUGGAUGCAGUUCACAGACUAAAUGUCGGUCGGGGAAGAUGUAUUCUUCUCAUAAGAUAUAGUCGGACCUCUCCUUAAUGGGAGCUAGCGGAUGAAGUGAUGCAACACUGGAGCCGCUGGGAACUAAUUUGUAUGCGAAAGUAUAUUGAUUAGUUUUGGAGUACUCGUGGUCG
Summary of the method: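 A randomised library covering all eight P1ex-region intron nucleotides was built with the intron in the knt kanamycin-resistance gene on pET-22b(+) and held in E. coli BL21(DE3). Cells were grown overnight at 37°C or 30°C on LB agar, with or without 25 μg/mL kanamycin, plus 100 μg/mL carbenicillin, 50 μM IPTG and 0.2% rhamnose, and pooled colonies were amplicon-sequenced on an Illumina HiSeq 2500. DiMSum fitness is the error-weighted combination of wild-type-normalised replicate fold changes, kanamycin versus none.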

Sequence	self-splicing fitness (ln) (30 °C)	self-splicing fitness (ln) (37 °C)
AUUUAGCAAUAUUACGUCAC	-3.2 ± 0.37	-1.42 ± 0.32
UCUGAGCAAUAUUACGCGGC	-4.16 ± 0.47	-3.58 ± 0.33
AAAAAGCAAUAUUACGUGCC	-0.945 ± 0.11	-1.17 ± 0.12
GUAGAGCAAUAUUACGAGGU	-1.12 ± 0.16	-1.33 ± 0.32
GUGGAGCAAUAUUACGGGUU	-3.16 ± 0.18	-3.15 ± 0.48
GCCGAGCAAUAUUACGGAGA	-1.55 ± 0.093	-1.15 ± 0.13
AUAGAGCAAUAUUACGGGGC	-3.43 ± 0.43	-2.51 ± 0.41
AAAAAGCAAUAUUACGCUAC	-3.43 ± 0.18	-3.23 ± 0.24
GGAAAGCAAUAUUACGAUGC	-0.209 ± 0.087	-0.26 ± 0.12
UGGCAGCAAUAUUACGCUUU	-1.24 ± 0.076	-0.763 ± 0.1
GACGAGCAAUAUUACGGGGA	-3.12 ± 0.22	-2.37 ± 0.29
UCUUAGCAAUAUUACGAGCA	-0.901 ± 0.15	-0.00766 ± 0.15
GUGCAGCAAUAUUACGGCUA	-0.0246 ± 0.077	0.17 ± 0.096
CAAAAGCAAUAUUACGGAUA	-3.27 ± 0.31	-1.81 ± 0.16
CCCAAGCAAUAUUACGGCAA	-2.32 ± 0.14	-2.69 ± 0.16
AUGUAGCAAUAUUACGGCCC	-0.72 ± 0.34	-0.359 ± 0.25
UUUAAGCAAUAUUACGAGAU	-3.92 ± 0.26	-0.782 ± 0.16
AAGGAGCAAUAUUACGCCUG	-2.1 ± 0.28	-0.484 ± 0.44
GACAAGCAAUAUUACGAGUU	-3.7 ± 0.15	-2.3 ± 0.16
AUGUAGCAAUAUUACGAAUU	-2 ± 0.12	-1.84 ± 0.16
UCAGAGCAAUAUUACGCUUG	-2.27 ± 0.14	-0.868 ± 0.12
UGUAAGCAAUAUUACGAUUG	-1 ± 0.081	-0.574 ± 0.097
CGGCAGCAAUAUUACGAUUG	-0.72 ± 0.055	0.0589 ± 0.08
GUCUAGCAAUAUUACGGCAC	-0.276 ± 0.14	0.385 ± 0.13
GAUAAGCAAUAUUACGUUAA	-3.91 ± 0.43	-1.52 ± 0.17
UCGGAGCAAUAUUACGAUAC	-3.5 ± 0.35	-0.757 ± 0.33

Sequence	self-splicing fitness (ln) (30 °C)	self-splicing fitness (ln) (37 °C)
ACGGAGCAAUAUUACGGUGU	-3.78 ± 0.2	-2.35 ± 0.16
CGUGAGCAAUAUUACGUAGC	-1.15 ± 0.34	-1.28 ± 0.35
AGUCAGCAAUAUUACGAAUG	-1.62 ± 0.09	-0.853 ± 0.11
GUCGAGCAAUAUUACGCCAA	-2.68 ± 0.35	-2.6 ± 0.48
CUUAAGCAAUAUUACGAGUC	-3.23 ± 0.33	-2.33 ± 0.29
UUAAAGCAAUAUUACGGCCC	-1.67 ± 0.17	0.305 ± 0.23
CUCAAGCAAUAUUACGCGGA	-3.12 ± 0.25	-4.56 ± 0.31
UGACAGCAAUAUUACGGUAA	-1.85 ± 0.12	-0.692 ± 0.11
UCCGAGCAAUAUUACGCAAU		-2.91 ± 0.34
CCAAAGCAAUAUUACGAGCA	-3.64 ± 0.23	-3.23 ± 0.26
AGAAAGCAAUAUUACGGGAU	-1.14 ± 0.14	-1.04 ± 0.12
UAGUAGCAAUAUUACGCCGG	-1.64 ± 0.21	-0.466 ± 0.24
AGGUAGCAAUAUUACGGAUA	-2.53 ± 0.025	-1.6 ± 0.036
AAAGAGCAAUAUUACGAAAA		-0.77 ± 0.4
GGUUAGCAAUAUUACGGUAC	-1.21 ± 0.11	-0.6 ± 0.15
CACUAGCAAUAUUACGGGCU	-4.24 ± 0.39	-3.52 ± 0.33
GUACAGCAAUAUUACGUGCA	-3.96 ± 0.22	-2.17 ± 0.16
UAAAAGCAAUAUUACGCAUG	-0.716 ± 0.068	-0.257 ± 0.1
AUGCAGCAAUAUUACGUAAU	-0.641 ± 0.05	-0.479 ± 0.066
GUCAAGCAAUAUUACGAUCA	-1.76 ± 0.23	-0.845 ± 0.15
CAUCAGCAAUAUUACGCCUG	-0.718 ± 0.092	-0.495 ± 0.098
AGCCAGCAAUAUUACGGUAU	-2.57 ± 0.1	-1.14 ± 0.094
UUCGAGCAAUAUUACGUCCA	-2.49 ± 0.31	-1.75 ± 0.44
UGCAAGCAAUAUUACGCUGG	-4 ± 0.35	-3.17 ± 0.24
GAGAAGCAAUAUUACGGUGA	-1.88 ± 0.15	-0.755 ± 0.15
ACGUAGCAAUAUUACGAGAG	-2.93 ± 0.14	-2.97 ± 0.23

Sequence	self-splicing fitness (ln) (30 °C)	self-splicing fitness (ln) (37 °C)
UGAAAGCAAUAUUACGUCUA	-0.288 ± 0.12	0.146 ± 0.11
GCCGAGCAAUAUUACGGUAC	-2.88 ± 0.15	-0.908 ± 0.24
AAUUAGCAAUAUUACGAUGC	-1.25 ± 0.15	-0.872 ± 0.18
UCUUAGCAAUAUUACGGAAC	-0.987 ± 0.34	-1.99 ± 0.43
GGCGAGCAAUAUUACGGGCU	-2.07 ± 0.36	-1.23 ± 0.28
UAAGAGCAAUAUUACGAUGA	-2.15 ± 0.22	-2.63 ± 0.38
AAUUAGCAAUAUUACGAGAG	-3.43 ± 0.23	-1.09 ± 0.18
UGUUAGCAAUAUUACGUAUA	-1.7 ± 0.12	-0.458 ± 0.11
CGUCAGCAAUAUUACGCUCA	-1.1 ± 0.15	0.0237 ± 0.12
AUAGAGCAAUAUUACGAUGG	-2.76 ± 0.21	-2.02 ± 0.31
AAAGAGCAAUAUUACGAAUU	-1.32 ± 0.22	-2.28 ± 0.31
UGUAAGCAAUAUUACGAACA	-0.358 ± 0.14	0.219 ± 0.17
CCUGAGCAAUAUUACGGGCC	-3.87 ± 0.31	-2.45 ± 0.23
GGAGAGCAAUAUUACGCGGU	-3.77 ± 0.47	
CUUAAGCAAUAUUACGGUGG	-1.7 ± 0.092	-0.937 ± 0.1
GUCAAGCAAUAUUACGUCCG		-3.83 ± 0.39
CGGUAGCAAUAUUACGGGAA	-3.45 ± 0.41	-2.75 ± 0.29
CGAAAGCAAUAUUACGAGUA	-3.07 ± 0.19	-2.36 ± 0.18
CAUUAGCAAUAUUACGUGAA	-2.94 ± 0.21	-3.18 ± 0.29
CGCGAGCAAUAUUACGAUGA	-3.39 ± 0.32	-1.7 ± 0.18
CGUCAGCAAUAUUACGGGUA	-1.81 ± 0.14	-1.06 ± 0.1
CAGCAGCAAUAUUACGGGCC	-3.41 ± 0.3	-2.78 ± 0.24
AACUAGCAAUAUUACGCCAG	-1.99 ± 0.16	-0.848 ± 0.23
UAGUAGCAAUAUUACGUACA	-1.05 ± 0.064	-0.269 ± 0.081
UUCGAGCAAUAUUACGGAAA	-1.51 ± 0.18	-2.84 ± 0.32
